The source of these data is the Human Domainome abundance scans (Beltran et al. 2025).

± gives the uncertainty stated by the source.

First the molecules themselves.
B1: Ras GTPase-activating protein 1, residues 281 to 341; numbered along this chain, P20936 (parent)
chain: RRRVRAILPYTKVPDTDEISFLKGDMFIVHNELEDGWMWVTNLRTDEQGLIVEDLVEEVGR

The variants in the series derive from B1. Nature of the series: abundance fitness (aPCA) (normalised: wild type 0, dead -1); higher = more abundant; growth selection in yeast, the domain comes from the species named. The following applies: Homo sapiens.
Turning to RRRVRAILPYTKVPDTDEISFLKGDMFIVHNELEDGWMWVTNLRTDGQGLIVEDLVEEVGR [E47G], the abundance fitness was -0.684 ± 0.034.
For the variant RRRVRAILPYTKVPDTDEISFLKGDMFIVHNELEDGWMWVTNLRTDPQGLIVEDLVEEVGR [E47P], the abundance fitness was -0.993 ± 0.09.
The result for RRRVRAILPYTKVPDTDEISFLKGDMFIVHNELEDGWMWVTNLRTDKQGLIVEDLVEEVGR [E47K] reads -0.23 ± 0.049; that for RRRVRAILPYTKVPDTDEISFLKGDMFIVHNELEDGWMWVTNLRTDMQGLIVEDLVEEVGR [E47M], -0.257 ± 0.042; that for RRRVRAILPYTKVPDTDEISFLKGDMFIVHNELEDGWMWVTNLRTDVQGLIVEDLVEEVGR [E47V], -0.375 ± 0.027.
The result for RRRVRAILPYTKVPDTDEISFLKGDMFIVHNELEDGWMWVTNLRTDAQGLIVEDLVEEVGR [E47A] reads -0.254 ± 0.031; that for RRRVRAILPYTKVPDTDEISFLKGDMFIVHNELEDGWMWVTNLRTDLQGLIVEDLVEEVGR [E47L], -0.417 ± 0.03; that for RRRVRAILPYTKVPDTDEISFLKGDMFIVHNELEDGWMWVTNLRTMEQGLIVEDLVEEVGR [D46M], -0.014 ± 0.045.
On to RRRVRAILPYTKVPDTDEISFLKGDMFIVHNELEDGWMWVTNLRTIEQGLIVEDLVEEVGR [D46I], for which the abundance fitness was -0.085 ± 0.026.
For RRRVRAILPYTKVPDTDEISFLKGDMFIVHNELEDGWMWVTNLRTFEQGLIVEDLVEEVGR [D46F] the value was -0.065 ± 0.024.
For RRRVRAILPYTKVPDTDEISFLKGDMFIVHNELEDGWMWVTNLRTHEQGLIVEDLVEEVGR [D46H] the value was 0.009 ± 0.028; for RRRVRAILPYTKVPDTDEISFLKGDMFIVHNELEDGWMWVTNLRTSEQGLIVEDLVEEVGR [D46S], -0.011 ± 0.023.
For RRRVRAILPYTKVPDTDEISFLKGDMFIVHNELEDGWMWVTNLRTPEQGLIVEDLVEEVGR [D46P] the value was -0.864 ± 0.072.
As to RRRVRAILPYTKVPDTDEISFLKGDMFIVHNELEDGWMWVTNLRTQEQGLIVEDLVEEVGR [D46Q], the abundance fitness is -0.11 ± 0.056.
Consider RRRVRAILPYTKVPDTDEISFLKGDMFIVHNELEDGWMWVTNLRTYEQGLIVEDLVEEVGR [D46Y], for which the abundance fitness is -0.098 ± 0.025.
Regarding RRRVRAILPYTKVPDTDEISFLKGDMFIVHNELEDGWMWVTNLRTNEQGLIVEDLVEEVGR [D46N], the abundance fitness was found to be 0.004 ± 0.025.
For RRRVRAILPYTKVPDTDEISFLKGDMFIVHNELEDGWMWVTNLRTVEQGLIVEDLVEEVGR [D46V] the value was -0.044 ± 0.024; for RRRVRAILPYTKVPDTDEISFLKGDMFIVHNELEDGWMWVTNLRTLEQGLIVEDLVEEVGR [D46L], -0.08 ± 0.026.
The result for RRRVRAILPYTKVPDTDEISFLKGDMFIVHNELEDGWMWVTNLRTCEQGLIVEDLVEEVGR [D46C] reads -0.002 ± 0.026; that for RRRVRAILPYTKVPDTDEISFLKGDMFIVHNELEDGWMWVTNLRTREQGLIVEDLVEEVGR [D46R], 0.019 ± 0.028; that for RRRVRAILPYTKVPDTDEISFLKGDMFIVHNELEDGWMWVTNLRTGEQGLIVEDLVEEVGR [D46G], 0.038 ± 0.025.
For RRRVRAILPYTKVPDTDEISFLKGDMFIVHNELEDGWMWVTNLRTAEQGLIVEDLVEEVGR [D46A] the value was 0.05 ± 0.027; for RRRVRAILPYTKVPDTDEISFLKGDMFIVHNELEDGWMWVTNLRTKEQGLIVEDLVEEVGR [D46K], 0.085 ± 0.042; for RRRVRAILPYTKVPDTDEISFLKGDMFIVHNELEDGWMWVTNLRTTEQGLIVEDLVEEVGR [D46T], -0.029 ± 0.028.
For the variant RRRVRAILPYTKVPDTDEISFLKGDMFIVHNELEDGWMWVTNLRTWEQGLIVEDLVEEVGR [D46W], the abundance fitness amounted to 0.029 ± 0.053.
In the case of RRRVRAILPYTKVPDTDEISFLKGDMFIVHNELEDGWMWVTNLRTEEQGLIVEDLVEEVGR [D46E], the abundance fitness stood at 0.066 ± 0.056.
The result for RRRVRAILPYTKVPDTDEISFLKGDMFIVHNELEDGWMWVTNSRTDEQGLIVEDLVEEVGR [L43S] reads -0.19 ± 0.027; that for RRRVRAILPYTKVPDTDEISFLKGDMFIVHNELEDGWMWVTNYRTDEQGLIVEDLVEEVGR [L43Y], -0.35 ± 0.033.
With RRRVRAILPYTKVPDTDEISFLKGDMFIVHNELEDGWMWVTNVRTDEQGLIVEDLVEEVGR [L43V], the abundance fitness is -0.044 ± 0.029.
The result for RRRVRAILPYTKVPDTDEISFLKGDMFIVHNELEDGWMWVTNNRTDEQGLIVEDLVEEVGR [L43N] reads -0.388 ± 0.036; that for RRRVRAILPYTKVPDTDEISFLKGDMFIVHNELEDGWMWVTNWRTDEQGLIVEDLVEEVGR [L43W], -0.748 ± 0.098.
Turning to RRRVRAILPYTKVPDTDEISFLKGDMFIVHNELEDGWMWVTNRRTDEQGLIVEDLVEEVGR [L43R], the abundance fitness was -0.437 ± 0.034.
The result for RRRVRAILPYTKVPDTDEISFLKGDMFIVHNELEDGWMWVTNMRTDEQGLIVEDLVEEVGR [L43M] reads 0.005 ± 0.057; that for RRRVRAILPYTKVPDTDEISFLKGDMFIVHNELEDGWMWVTNKRTDEQGLIVEDLVEEVGR [L43K], -0.206 ± 0.065.
Regarding RRRVRAILPYTKVPDTDEISFLKGDMFIVHNELEDGWMWVTNTRTDEQGLIVEDLVEEVGR [L43T], the abundance fitness is -0.038 ± 0.036.
Turning to RRRVRAILPYTKVPDTDEISFLKGDMFIVHNELEDGWMWVTNPRTDEQGLIVEDLVEEVGR [L43P], the abundance fitness was -0.784 ± 0.079.
The result for RRRVRAILPYTKVPDTDEISFLKGDMFIVHNELEDGWMWVTNIRTDEQGLIVEDLVEEVGR [L43I] reads -0.012 ± 0.029.
For RRRVRAILPYTKVPDTDEISFLKGDMFIVHNELEDGWMWVTNLRTDEDGLIVEDLVEEVGR [Q48D], the abundance fitness is -0.038 ± 0.031.
For RRRVRAILPYTKVPDTDEISFLKGDMFIVHNELEDGWMWVTNLRTDEEGLIVEDLVEEVGR [Q48E] the value was -0.06 ± 0.063.
Take RRRVRAILPYTKVPDTDEISFLKGDMFIVHNELEDGWMWVTNLRTDEAGLIVEDLVEEVGR [Q48A]: the abundance fitness is -0.073 ± 0.031.
The result for RRRVRAILPYTKVPDTDEISFLKGDMFIVHNELEDGWMWVTNLRTDEHGLIVEDLVEEVGR [Q48H] reads -0.048 ± 0.03; that for RRRVRAILPYTKVPDTDEISFLKGDMFIVHNELEDGWMWVTNLRTDEGGLIVEDLVEEVGR [Q48G], -0.375 ± 0.033; that for RRRVRAILPYTKVPDTDEISFLKGDMFIVHNELEDGWMWVTNLRTDECGLIVEDLVEEVGR [Q48C], -0.043 ± 0.028.
Consider RRRVRAILPYTKVPDTDEISFLKGDMFIVHNELEDGWMWVTNLRTDEFGLIVEDLVEEVGR [Q48F], for which the abundance fitness was -0.122 ± 0.026.
